Laboratory results published in the supplement of paper PMC12338614.
± gives the uncertainty stated by the source.

B1: library; numbered along this chain (parent)
chain: MEVVDPQQLGMFTEGELMSVGMDTFIHRIDSTEVIYQPRRKRAKLIGKYLMGDLLGEGSYGKVKEVLDSETLCRRAVKILKKKKLRRIPNGEANVKKEIQLLRRLRHKNVIQLVDVLYNEEKQKMYMVMEYCVCGMQEMLDSVPEKRFPVCQAHGYFCQLIDGLEYLHSQGIVHKDIKPGNLLLTTGGTLKISDLGVAEALHPFAADDTCRTSQGSPAFQPPEIANGLDTFSGFKVDIWSAGVTLYNITTGLYPFEGDNIYKLFENIGKGSYAIPGDCGPPLSDLLKGMLEYEPAKRFSIRQIRQHSWFRKKHPPAEAPVPIPPSPDTKDRWRSMTVVPYLEDLHGADEDEDLFDIEDDIIYTQDFTVPGQVPEEEASHNGQRRGLPKAVCMNGTEAAQLSTKSRAEGRAPNPARKACSASSKIRRLSACKQQ

Variants of: B1
Experiment: STK11 functional score (HeLa growth suppression), rescaled enrichment; synonymous median = 1, nonsense median = 0 (normalised score)
Settings: with HeLa; variant type: missense
In short: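 The values are functional scores: wild-type-corrected log ratios of post- versus pre-selection abundance, rescaled to synonymous and nonsense medians, merged over codons and replicate transfections, and carrying bootstrapped error. They derive from codon-randomised (POPCode), codon-optimised STK11 libraries that Bxb1 integrated at an AAVS1 landing pad in HeLa, with three transfections for each of three regions. Sequencing of tiled gDNA amplicons ran on NextSeq, at ~2 million reads per tile.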

Variant | STK11 functional score
R75V | 1.27 ± 0.37
R87V | 1.08 ± 0.43
R87K | 0.613 ± 0.69
E407M | 1.58 ± 0.15
E407L | 0.778 ± 0.17
D348H | 1.18 ± 0.6
D348L | 1.3 ± 0.15
A429S | 1.29 ± 0.2
L45C | 1.08 ± 0.4
K423H | 0.899 ± 0.69
G346S | 1.48 ± 0.22
S422A | 1.5 ± 0.26
K82W | 1.33 ± 0.33
L102Y | 1.2 ± 0.37
K44C | 1.12 ± 0.2
K44A | 1.57 ± 0.37
V128C | 1.15 ± 0.1
K146E | 1.14 ± 0.31
F264V | 0.678 ± 0.21
N119F | 1.16 ± 0.097
K83Q | 0.343 ± 0.37
W308Y | -0.119 ± 0.11
W308R | -0.166 ± 0.096
N226T | 1.26 ± 0.12

Variant | STK11 functional score
I161M | 1.31 ± 0.26
I161N | 0.158 ± 0.13
I161G | 0.264 ± 0.092
I161P | 0.918 ± 0.66
H306S | 1.53 ± 0.15
R39Q | 0.277 ± 0.097
T186P | 1.52 ± 0.33
G270H | 1.07 ± 0.31
G270R | 1.43 ± 0.39
Q399K | 0.826 ± 0.39
T185P | 0.0618 ± 0.18
T185C | 1.13 ± 0.22
E351S | 1.4 ± 0.14
P281N | 1.66 ± 0.19
P281R | 0.969 ± 0.13
P281E | 1.3 ± 0.46
H202R | 0.161 ± 0.26
P315I | 1.21 ± 0.28
P315T | 1.2 ± 0.42
I248S | 0.859 ± 0.097
I248W | 0.853 ± 0.099
I248G | 0.0645 ± 0.096
R40G | 1.19 ± 0.27
P38Y | 0.0651 ± 0.12

Variant | STK11 functional score
S325D | 1.09 ± 0.29
S325N | 1.47 ± 0.18
D327R | 1.61 ± 0.16
G394C | 1.28 ± 0.15
Y272P | 1.38 ± 0.45
Y272F | 1.27 ± 0.13
A205L | 0.703 ± 0.24
A205C | 1.25 ± 0.39
A200D | 0.859 ± 0.28
F204L | 1.17 ± 0.4
R425C | 1.27 ± 0.36
E374R | 1.61 ± 0.28
M51Y | 1.62 ± 0.27
F354E | 1.45 ± 0.27
F354V | 1.3 ± 0.21
R310S | 1.54 ± 0.22
L50D | 1.39 ± 0.39
L50P | 0.95 ± 0.22
L50T | 1.29 ± 0.23
G61C | 1.13 ± 0.097
R74I | 1.15 ± 0.12
K62A | 1.7 ± 0.31
I360L | 1.13 ± 0.16
I360D | 0.487 ± 0.42

Variant | STK11 functional score
D207R | 1.55 ± 0.24
M139L | 1.2 ± 0.11
G215L | 1.04 ± 0.15
A273M | 0.796 ± 0.8
P294N | 0.433 ± 0.32
S142N | 1.16 ± 0.33
A389C | 1.51 ± 0.32
A389P | 1.3 ± 0.36
A347P | 1.21 ± 0.28
A347I | 1.52 ± 0.17
C134T | 1.61 ± 0.28
L195A | 1.17 ± 0.39
I300V | 1.13 ± 0.28
K296M | 1.32 ± 0.89
Q37G | 1.08 ± 0.14
K124Y | 1.25 ± 0.086
K124H | 1.3 ± 0.16
D330V | 1.46 ± 0.3
D330L | 1.59 ± 0.16
A218L | 0.905 ± 0.11
R333S | 1.55 ± 0.2
T209M | 1.43 ± 0.33
N247K | 0.794 ± 0.19
G251S | 1.01 ± 0.2

Variant | STK11 functional score
A318R | 1.43 ± 0.34
F148W | 0.336 ± 0.079
M18D | 0.127 ± 0.19
P89W | 1.08 ± 0.16
A377W | 0.843 ± 0.75
D343P | 1.33 ± 0.15
D343V | 1.21 ± 0.64
R384Y | 1.53 ± 0.12
D284N | 1.29 ± 0.37
S19K | 1.53 ± 0.39
S19I | 1.34 ± 0.41
S19Y | 1.01 ± 0.15
Y246Q | 1.11 ± 0.17
L55A | 0.122 ± 0.29
Y156P | 0.418 ± 0.19
T395H | 1.53 ± 0.25
T395Q | 1.5 ± 0.32
T395V | 1.04 ± 0.19
G155R | 0.742 ± 0.4
Y261W | 0.609 ± 0.091
Y261A | 1.25 ± 0.43
L85I | 1.56 ± 0.2
L85A | 1.62 ± 0.21
P411S | 1.23 ± 0.49

Variant | STK11 functional score
P411N | 1.55 ± 0.18
L285E | -0.0678 ± 0.11
G276E | 1.57 ± 0.32
G276L | 1.11 ± 0.21
G180C | 1.09 ± 0.31
P6L | 0.99 ± 0.12
Q305S | 0.954 ± 0.59
I79V | 0.313 ± 0.085
C418M | 1.54 ± 0.14
K96D | 1.27 ± 0.25
Q159Y | 1.03 ± 0.46
G408Y | 1.49 ± 0.16
G188D | 1.43 ± 0.16
C210V | 1 ± 0.26
S31M | 0.857 ± 0.12
R147I | 1.22 ± 0.2
R147T | -0.149 ± 0.087
R147V | 0.547 ± 0.098
R147L | 0.461 ± 0.097
Q214L | 1.05 ± 0.15
V320H | 1.59 ± 0.27
Y131Q | -0.0871 ± 0.078
N259Y | 1.1 ± 0.1
V197A | 1.26 ± 0.69

Variant | STK11 functional score
E291L | 0.796 ± 0.14
I46M | 0.908 ± 0.76
G279S | 1.25 ± 0.12
G279T | 1.57 ± 0.21
A76G | 1.09 ± 0.1
P280F | 1 ± 0.18
P280H | 1.17 ± 0.16
I267L | 0.603 ± 0.12
V173P | 0.128 ± 0.49
R28W | 1.18 ± 0.092
D162E | 0.171 ± 0.15
D162H | 0.6 ± 0.53
D162F | 1.15 ± 0.4
G233L | 1.57 ± 0.32
T71E | 1.37 ± 0.42
R211P | 1.19 ± 0.33
R211L | 1.21 ± 0.19
E92Q | 1.16 ± 0.51
E92S | 0.979 ± 0.19
F255Y | 1.25 ± 0.79
V95E | 0.927 ± 0.43
P144G | 1 ± 0.21
Y126P | -0.144 ± 0.083
